This note sets out measurements from paper PMC11206591, “Novel Ultrasound-Responsive Amyloid Formulation” (Pharmaceuticals, 2024).

The series concerns the molecule itself. Briefly: thioflavin T (ThT) fluorescence; 200 µM peptide in 100 mM ammonium acetate buffer pH 7, 37 °C in a thermomixer, read at 24 h and 48 h; with and without Pluronic F127 0.01% and Dox; ThT 50 µM in 20 mM Tris pH 8, 440/482 nm.

B1: Receptor-interacting protein RIP 3 peptide NIYNCSGVQVGD (peptide)
peptide: NIYNCSGVQVGD
notes: The amyloids were formed from the peptide alone and also with Pluronic F127 (0.01% w/v) and/or Doxorubicin; also called 12-amino-acid peptide from the amyloidogenic region of RIP3; source: synthetic peptide, custom-synthesized from Genscript
On to B1, for which the binding result is reported as “binds”.
